Reference: patent US20190263889A1 (ONCOC4, published 2019)

B1: human B7-1Fc fusion protein (Fc fusion, UniProt P33681 35-242, looked up, not shown: a dimerising Fc or GST)
chain: VIHVTKEVKEVATLSCGHNVSVEELAQTRIYWQKEKKMVLTMMSGDMNIWPEYKNRTIFDITNNLSIVILALRPSDEGTYECVVLKYEKDAFKREHLAEVTLSVKADFPTPSISDFEIPTSNIRRIICSTSGGFPEPHLSWLENGEELNAINTTVSQDPETELYAVSSKLDFNMTTNHSFMCLIKYGHLRVNQTFNWNTTKQEHFPDN
notes: Used biotinylated in ELISA; also called B7-1 Ig; B7-1 Ig fusion protein

Key:
[1] = target: B1; assay: ELISA, summary grade
[2] = target: T1, CTLA-4Fc mutant protein M6 (human (murine residues substituted)); assay: ELISA; binder 10 ng/ml on coated target
T1 construct: also called Mutant 6

human IgG1-Fc control = target: T2, human IgG1-Fc control (human, UniProt P01857-1 99-330 = IgG part, limits assumed); assay: ELISA, summary grade
T2 construct: domain: Fc; Negative control coated on plates; also called Control IgG1-Fc; hIg-Fc

[3] = target: T1, CTLA-4Fc mutant protein M6; assay: ELISA; binder 1000 ng/ml on coated target
[4] = target: T3, CTLA-4Fc mutant protein M8 (human (murine residues substituted)); assay: ELISA; binder 1000 ng/ml on coated target
T3 construct: also called Mutant 8

Row | binding result [1] | OD450 [2] [OD450] | binding result (human IgG1-Fc control) | OD450 [3] [OD450] | OD450 [4] [OD450] | Binder
1 | binds |  |  |  |  | CTLA-4Fc mutant protein M16 (Fc fusion) IQVTQPSVVLASSRGIASFVCEYASPGKATEVRVTVLRQADSQVTEVCAATFTEKNTVGFLDDSICTGTFNESRVNLTIQGLRAMDTGLYICKVELMYPPPYFVGMGNGTQIYVIDPEPCPDSDQEPKSSDKTHTSPPSPAPELLGGSSVFLFPPKPKDTLYITREPEVTCVVVDVSHEDPEVKFNWYVDGVEVHNAKTKPREEQYNSTYRVVSVLTVLHQDWLNGKEYKCKVSNKALPAPIEKTISKAKGQPREPQVYTLPPSRDELTKNQVSLTCLVKGFYPSDIAVEWESNGQPENNYKTTPPVLDSDGSFFLYSKLTVDKSRWQQGNVFSCSVMHEALHNHYTQKSLSLSPGK
2 |  | 0.279 | no binding | 3.41 | 3.63 | B1
3 |  |  | no binding |  |  | human B7-2Fc fusion protein (Fc fusion, UniProt P42081 24-245, looked up, not shown: a dimerising Fc or GST, Used biotinylated in ELISA; also called hB7-2Fc; CD86) APLKIQAYFNETADLPCQFANSQNQSLSELVVFWQDQENLVLNEVYLGKEKFDSVHSKYMGRTSFDSDSWTLRLHNLQIKDKGLYQCIIHHKKPTGMIRIHQMNSELSVLANFSQPEIVPISNITENVYINLTCSSIHGYPEPKKMSVLLRTKNSTIEYDGVMQKSQDNVTELYDVSISLSVSFPDVTSNMTIFCILETDKTRLLSSPFSIELEDPQPPPDH
